Measurements: publication PMC11289409, “Coupling sensor to enzyme in the voltage sensing phosphatase” (Nature Communications, 2024)

Biological target: the molecule itself
Test: cryo-EM structure; Dr-VSP (C302S) in MSP2N2 lipid nanodiscs (Dr-VSP:MSP2N2:lipid 1:4:400), 20 mM Tris, 150 mM NaCl, 5 mM EGTA, pH 8, 5.6 mg/ml; class of particles with the cytoplasmic domain as a dimer, 3.0 Å

B1: Danio rerio voltage-sensing phosphatase (Dr-VSP) with the active site cysteine mutated to serine (C302S) (enzyme, UniProt Q4V9E4 1-511, looked up)
chain: MTSVHFNPGLDSKEVNGNSVKEEAEVQIDDGKEETKDPDTMYHQVRKKITPFVMSFGFRVFGLVLIILDIIMVIVDLSLSEKSRDVGGAPETVSLVISFFFLIDVLLRVYVEGFKVYFSSKLNIVDACIVVITLVVTMIYAFSDFSGASLIPRVVTFLRSLRILILVRIFRLASQKRELEKVTRRMVSENKRRYQKDGFDLDLTYVTERVIAMSFPSSGKQALYRNPIREVVRFLDTKHMDHYKVFNLCSEKGYDPKFFHYRVERVMIDDHNVPSLDDMLRYTACVRDWMAADSRNVIAIHSKGGKGRTGTMVCTWLIDSDQFESAQESLDYFGERRTDKSMSSKFQGVETPSQSRYVGYYEIMKNQYNRQLPPRKSLKIKSIRIHSIAGVGKGNGSDLKLKIIVKHELVFQCVCAKQHNCTVFPDTGSNAVVISLQDGPIVTGDVKVMFESSAGLPKGYEDCPFYFWFNTSFVENYRLFLSREELDNPHKPKTWDIYKEDFGVTLSFTEP
notes: Danio rerio voltage-sensing phosphatase (Dr-VSP), full-length construct in a modified pPICZ-B vector, with C302S; only the cytoplasmic domain is resolved in the dimer map; The methods name the full-length Dr-VSP construct; also called Dr-VSP (C302S); Danio rerio VSP C302S; not shown: eGFP, C-terminal, cleaved; His10, C-terminal, cleaved
stoichiometry N: 2
